We go through 2 substances from patent US6428967.

Experiment [1] addresses wild type human LDL receptor on CHO cells (human) (UniProt P01130). In words: cell-based or functional assay.
For experiment [2] the target is unchanged. Briefly: 125I-LDL surface binding on CHO cells expressing the wild type human LDL receptor, with or without Dab1.

Sequence of wild type human LDL receptor on CHO cells (human) (P01130 22-860): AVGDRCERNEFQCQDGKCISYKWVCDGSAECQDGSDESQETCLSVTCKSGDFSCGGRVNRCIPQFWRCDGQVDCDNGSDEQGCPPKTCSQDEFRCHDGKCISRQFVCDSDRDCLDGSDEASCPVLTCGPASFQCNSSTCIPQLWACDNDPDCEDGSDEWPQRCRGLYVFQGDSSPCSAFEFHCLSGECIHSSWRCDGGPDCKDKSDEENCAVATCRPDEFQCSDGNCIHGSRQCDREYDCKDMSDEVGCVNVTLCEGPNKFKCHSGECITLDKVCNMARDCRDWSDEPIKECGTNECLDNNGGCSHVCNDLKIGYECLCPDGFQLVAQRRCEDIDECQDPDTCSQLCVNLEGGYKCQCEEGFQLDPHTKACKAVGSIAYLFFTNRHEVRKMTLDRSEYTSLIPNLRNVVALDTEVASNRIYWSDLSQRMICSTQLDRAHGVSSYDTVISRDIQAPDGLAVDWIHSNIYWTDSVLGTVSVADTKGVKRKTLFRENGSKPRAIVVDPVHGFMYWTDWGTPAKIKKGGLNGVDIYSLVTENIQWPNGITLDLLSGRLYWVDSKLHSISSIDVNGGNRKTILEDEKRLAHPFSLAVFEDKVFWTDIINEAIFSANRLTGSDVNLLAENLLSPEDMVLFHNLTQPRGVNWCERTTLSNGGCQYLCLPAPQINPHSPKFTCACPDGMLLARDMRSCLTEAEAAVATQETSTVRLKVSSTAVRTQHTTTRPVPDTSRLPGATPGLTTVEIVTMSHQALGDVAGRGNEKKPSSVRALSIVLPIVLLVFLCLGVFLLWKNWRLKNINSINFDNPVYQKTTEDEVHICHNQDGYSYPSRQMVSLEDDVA

Consider “Dab1 expressed in CHO cells from pcDNA3.1/ZEO DAB555 (from UniProt P97318 1-555)”, for which, in experiment [1], the LDL bound on the cell surface (125I labeled human LDL) was found to be 2 times.

The substance 125I labeled human LDL, P04114 28-4563 displayed a fold of LDL bound on the cell surface, cells with Dab1 against cells without Dab1 in experiment [2] of 2 times.
